Laboratory results reported in publication PMC9482650, “Quantitative fragmentomics allow affinity mapping of interactomes” (Nature Communications, 2022).

T1: PCLO, Q9Y6V0
T1 sequence (Q9Y6V0 4491-4600, limits assumed, looked up): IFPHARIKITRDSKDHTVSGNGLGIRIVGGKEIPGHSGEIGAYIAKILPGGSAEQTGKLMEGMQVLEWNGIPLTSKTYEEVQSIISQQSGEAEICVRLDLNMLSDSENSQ

T2: RHPN1, Q8TCX5
T2 sequence (Q8TCX5 508-602, limits assumed, looked up): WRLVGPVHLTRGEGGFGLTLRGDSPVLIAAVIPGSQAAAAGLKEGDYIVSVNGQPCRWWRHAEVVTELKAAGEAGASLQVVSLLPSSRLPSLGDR

T3: NHERF3_4, Q5T2W1
T3 sequence (Q5T2W1 373-468, limits assumed, looked up): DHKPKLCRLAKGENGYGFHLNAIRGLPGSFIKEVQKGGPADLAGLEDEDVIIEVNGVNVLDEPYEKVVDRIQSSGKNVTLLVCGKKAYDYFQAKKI

T4: MPDZ_5, O75970
T4 sequence (O75970 695-796, limits assumed, looked up): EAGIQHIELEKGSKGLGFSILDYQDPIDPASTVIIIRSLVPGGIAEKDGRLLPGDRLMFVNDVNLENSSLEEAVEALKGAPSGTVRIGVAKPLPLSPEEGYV

T5: LRRC7, Q96NW7
T5 sequence (Q96NW7 1440-1537, limits assumed, looked up): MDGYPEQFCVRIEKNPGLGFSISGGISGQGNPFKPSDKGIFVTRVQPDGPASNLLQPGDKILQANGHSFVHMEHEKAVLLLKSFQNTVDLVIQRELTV

T6: SNTA1, Q13424
T6 sequence (Q13424 82-180, limits assumed, looked up): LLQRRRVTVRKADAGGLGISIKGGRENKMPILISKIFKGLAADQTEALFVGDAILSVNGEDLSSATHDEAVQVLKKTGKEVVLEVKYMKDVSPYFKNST

T7: SYNJ2BP, P57105
T7 sequence (P57105 8-110, limits assumed, looked up): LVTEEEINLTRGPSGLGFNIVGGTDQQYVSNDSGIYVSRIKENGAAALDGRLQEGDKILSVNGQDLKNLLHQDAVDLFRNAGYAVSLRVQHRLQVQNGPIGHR

T8: NHERF3_3, Q5T2W1
T8 sequence (Q5T2W1 238-333, limits assumed, looked up): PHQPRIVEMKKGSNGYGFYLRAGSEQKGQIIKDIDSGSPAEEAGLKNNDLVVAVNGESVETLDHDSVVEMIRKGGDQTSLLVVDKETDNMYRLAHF

T9: GRIP1_7, Q9Y3R0
T9 sequence (Q9Y3R0 999-1096, limits assumed, looked up): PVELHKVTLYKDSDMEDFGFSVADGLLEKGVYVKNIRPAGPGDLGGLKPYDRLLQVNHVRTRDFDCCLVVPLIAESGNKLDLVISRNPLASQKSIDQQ

T10: GRIP1_3, Q9Y3R0
T10 sequence (Q9Y3R0 247-346, limits assumed, looked up): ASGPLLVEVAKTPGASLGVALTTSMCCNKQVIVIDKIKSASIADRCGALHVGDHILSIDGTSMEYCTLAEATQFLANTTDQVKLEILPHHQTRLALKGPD

T11: TX1BP3, O14907
T11 sequence (O14907 10-122, limits assumed, looked up): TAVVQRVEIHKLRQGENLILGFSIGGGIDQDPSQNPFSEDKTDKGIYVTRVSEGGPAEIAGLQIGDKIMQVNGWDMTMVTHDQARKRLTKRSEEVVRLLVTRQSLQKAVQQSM

T12: MPP7, Q5T2T1
T12 sequence (Q5T2T1 134-230, limits assumed, looked up): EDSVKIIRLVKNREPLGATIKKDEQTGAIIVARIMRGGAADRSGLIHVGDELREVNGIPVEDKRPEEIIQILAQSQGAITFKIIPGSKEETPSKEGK


Biological target: T1, PCLO, Q9Y6V0
Test: holdup assay
Parameters: key: below the threshold = too weak to quantify, mostly under pKd 3.1 to 4
Conditions: plain residues with an end cap or a label only (N-terminal biotin on a linker: ado-ado)

| Binder | pKd |
| --- | --- |
| RKPKPSSSCC [RAB9A, P51151] | below the threshold |
| YRLAQESGLV [ABCC6, O95255] | below the threshold |

Biological target: GRID2IP_2, A4D2P6
Test: holdup assay
Parameters: key: below the threshold = too weak to quantify, mostly under pKd 3.1 to 4
Conditions: plain residues with an end cap or a label only (N-terminal biotin on a linker: ado-ado)

GRID2IP_2, A4D2P6, sequence (A4D2P6 272-370): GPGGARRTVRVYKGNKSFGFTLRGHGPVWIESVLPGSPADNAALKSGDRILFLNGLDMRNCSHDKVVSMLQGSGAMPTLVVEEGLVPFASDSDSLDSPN

| Binder | pKd |
| --- | --- |
| RKPKPSSSCC [RAB9A, P51151] | 3.54 |
| YRLAQESGLV [ABCC6, O95255] | below the threshold |

Biological target: MAGI2_3, Q86UL8
Test: holdup assay
Parameters: key: below the threshold = too weak to quantify, mostly under pKd 3.1 to 4
Conditions: plain residues with an end cap or a label only (N-terminal biotin on a linker: ado-ado)

MAGI2_3, Q86UL8, sequence (Q86UL8 600-682): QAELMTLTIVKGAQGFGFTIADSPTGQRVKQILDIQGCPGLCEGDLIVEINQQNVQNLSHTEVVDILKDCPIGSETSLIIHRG

| Binder | pKd |
| --- | --- |
| RKPKPSSSCC [RAB9A, P51151] | below the threshold |
| YRLAQESGLV [ABCC6, O95255] | below the threshold |

Biological target: MAGI2_4, Q86UL8
Test: holdup assay
Parameters: key: below the threshold = too weak to quantify, mostly under pKd 3.1 to 4
Conditions: plain residues with an end cap or a label only (N-terminal biotin on a linker: ado-ado)

MAGI2_4, Q86UL8, sequence (Q86UL8 772-865): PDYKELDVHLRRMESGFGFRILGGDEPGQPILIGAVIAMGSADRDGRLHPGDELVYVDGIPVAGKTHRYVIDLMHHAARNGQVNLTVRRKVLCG

| Binder | pKd |
| --- | --- |
| RKPKPSSSCC [RAB9A, P51151] | below the threshold |
| YRLAQESGLV [ABCC6, O95255] | 3.89 |

Biological target: PDZRN4_1, Q6ZMN7
Test: holdup assay
Parameters: key: below the threshold = too weak to quantify, mostly under pKd 3.1 to 4
Conditions: plain residues with an end cap or a label only (N-terminal biotin on a linker: ado-ado)

PDZRN4_1, Q6ZMN7, sequence (Q6ZMN7 213-318): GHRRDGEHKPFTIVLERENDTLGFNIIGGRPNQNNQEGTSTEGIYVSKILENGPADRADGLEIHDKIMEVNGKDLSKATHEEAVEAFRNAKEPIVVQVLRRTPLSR

| Binder | pKd |
| --- | --- |
| RKPKPSSSCC [RAB9A, P51151] | below the threshold |
| YRLAQESGLV [ABCC6, O95255] | below the threshold |

Biological target: T2, RHPN1, Q8TCX5
Test: holdup assay
Parameters: key: below the threshold = too weak to quantify, mostly under pKd 3.1 to 4
Conditions: plain residues with an end cap or a label only (N-terminal biotin on a linker: ado-ado)

| Binder | pKd |
| --- | --- |
| RKPKPSSSCC [RAB9A, P51151] | below the threshold |
| YRLAQESGLV [ABCC6, O95255] | below the threshold |

Biological target: DLG2_3, Q15700
Test: holdup assay
Parameters: key: below the threshold = too weak to quantify, mostly under pKd 3.1 to 4
Conditions: plain residues with an end cap or a label only (N-terminal biotin on a linker: ado-ado)

| Binder | pKd |
| --- | --- |
| RKPKPSSSCC [RAB9A, P51151] | 3.53 |
| YRLAQESGLV [ABCC6, O95255] | below the threshold |

Biological target: T3, NHERF3_4, Q5T2W1
Test: holdup assay
Parameters: key: below the threshold = too weak to quantify, mostly under pKd 3.1 to 4
Conditions: plain residues with an end cap or a label only (N-terminal biotin on a linker: ado-ado)

| Binder | pKd |
| --- | --- |
| RKPKPSSSCC [RAB9A, P51151] | below the threshold |
| YRLAQESGLV [ABCC6, O95255] | below the threshold |

Biological target: T4, MPDZ_5, O75970
Test: holdup assay
Parameters: key: below the threshold = too weak to quantify, mostly under pKd 3.1 to 4
Conditions: plain residues with an end cap or a label only (N-terminal biotin on a linker: ado-ado)

| Binder | pKd |
| --- | --- |
| RKPKPSSSCC [RAB9A, P51151] | below the threshold |
| YRLAQESGLV [ABCC6, O95255] | below the threshold |

Biological target: T5, LRRC7, Q96NW7
Test: holdup assay
Parameters: key: below the threshold = too weak to quantify, mostly under pKd 3.1 to 4
Conditions: plain residues with an end cap or a label only (N-terminal biotin on a linker: ado-ado)

| Binder | pKd |
| --- | --- |
| RKPKPSSSCC [RAB9A, P51151] | below the threshold |
| YRLAQESGLV [ABCC6, O95255] | below the threshold |

Biological target: DLG5_1, Q8TDM6
Test: holdup assay
Parameters: key: below the threshold = too weak to quantify, mostly under pKd 3.1 to 4
Conditions: plain residues with an end cap or a label only (N-terminal biotin on a linker: ado-ado)

DLG5_1, Q8TDM6, sequence (Q8TDM6 617-713): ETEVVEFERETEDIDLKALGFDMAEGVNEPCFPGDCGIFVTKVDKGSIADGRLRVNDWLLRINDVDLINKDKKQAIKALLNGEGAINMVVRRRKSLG

| Binder | pKd |
| --- | --- |
| RKPKPSSSCC [RAB9A, P51151] | below the threshold |
| YRLAQESGLV [ABCC6, O95255] | below the threshold |

Biological target: MAST1, Q9Y2H9
Test: holdup assay
Parameters: key: below the threshold = too weak to quantify, mostly under pKd 3.1 to 4
Conditions: plain residues with an end cap or a label only (N-terminal biotin on a linker: ado-ado)

MAST1, Q9Y2H9, sequence (Q9Y2H9 962-1065): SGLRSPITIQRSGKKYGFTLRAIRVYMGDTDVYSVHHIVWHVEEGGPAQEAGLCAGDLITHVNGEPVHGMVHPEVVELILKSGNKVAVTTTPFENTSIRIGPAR

| Binder | pKd |
| --- | --- |
| RKPKPSSSCC [RAB9A, P51151] | below the threshold |
| YRLAQESGLV [ABCC6, O95255] | 3.59 |

Biological target: T6, SNTA1, Q13424
Test: holdup assay
Parameters: key: below the threshold = too weak to quantify, mostly under pKd 3.1 to 4
Conditions: plain residues with an end cap or a label only (N-terminal biotin on a linker: ado-ado)

| Binder | pKd |
| --- | --- |
| RKPKPSSSCC [RAB9A, P51151] | below the threshold |
| YRLAQESGLV [ABCC6, O95255] | below the threshold |

Biological target: DLG1_2, Q12959
Test: holdup assay
Parameters: key: below the threshold = too weak to quantify, mostly under pKd 3.1 to 4
Conditions: plain residues with an end cap or a label only (N-terminal biotin on a linker: ado-ado)

DLG1_2, Q12959, sequence (Q12959 314-412): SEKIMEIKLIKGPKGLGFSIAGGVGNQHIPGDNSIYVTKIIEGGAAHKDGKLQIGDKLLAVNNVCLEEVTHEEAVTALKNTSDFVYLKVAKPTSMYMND

| Binder | pKd |
| --- | --- |
| RKPKPSSSCC [RAB9A, P51151] | below the threshold |
| YRLAQESGLV [ABCC6, O95255] | below the threshold |

Biological target: T7, SYNJ2BP, P57105
Test: holdup assay
Parameters: key: below the threshold = too weak to quantify, mostly under pKd 3.1 to 4
Conditions: plain residues with an end cap or a label only (N-terminal biotin on a linker: ado-ado)

| Binder | pKd |
| --- | --- |
| RKPKPSSSCC [RAB9A, P51151] | below the threshold |
| YRLAQESGLV [ABCC6, O95255] | below the threshold |

Biological target: LIMK2, P53671
Test: holdup assay
Parameters: key: below the threshold = too weak to quantify, mostly under pKd 3.1 to 4
Conditions: plain residues with an end cap or a label only (N-terminal biotin on a linker: ado-ado)

LIMK2, P53671, sequence (P53671 143-248): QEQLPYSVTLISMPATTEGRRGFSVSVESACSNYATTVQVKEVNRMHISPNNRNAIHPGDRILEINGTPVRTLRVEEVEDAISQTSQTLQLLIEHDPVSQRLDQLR

| Binder | pKd |
| --- | --- |
| RKPKPSSSCC [RAB9A, P51151] | below the threshold |
| YRLAQESGLV [ABCC6, O95255] | below the threshold |

Biological target: T8, NHERF3_3, Q5T2W1
Test: holdup assay
Parameters: key: below the threshold = too weak to quantify, mostly under pKd 3.1 to 4
Conditions: plain residues with an end cap or a label only (N-terminal biotin on a linker: ado-ado)

| Binder | pKd |
| --- | --- |
| RKPKPSSSCC [RAB9A, P51151] | below the threshold |
| YRLAQESGLV [ABCC6, O95255] | below the threshold |

Biological target: T9, GRIP1_7, Q9Y3R0
Test: holdup assay
Parameters: key: below the threshold = too weak to quantify, mostly under pKd 3.1 to 4
Conditions: plain residues with an end cap or a label only (N-terminal biotin on a linker: ado-ado)

| Binder | pKd |
| --- | --- |
| RKPKPSSSCC [RAB9A, P51151] | below the threshold |
| YRLAQESGLV [ABCC6, O95255] | below the threshold |

Biological target: DLG2_2, Q15700
Test: holdup assay
Parameters: key: below the threshold = too weak to quantify, mostly under pKd 3.1 to 4
Conditions: plain residues with an end cap or a label only (N-terminal biotin on a linker: ado-ado)

| Binder | pKd |
| --- | --- |
| RKPKPSSSCC [RAB9A, P51151] | below the threshold |
| YRLAQESGLV [ABCC6, O95255] | below the threshold |

Biological target: T10, GRIP1_3, Q9Y3R0
Test: holdup assay
Parameters: key: below the threshold = too weak to quantify, mostly under pKd 3.1 to 4
Conditions: plain residues with an end cap or a label only (N-terminal biotin on a linker: ado-ado)

| Binder | pKd |
| --- | --- |
| RKPKPSSSCC [RAB9A, P51151] | below the threshold |
| YRLAQESGLV [ABCC6, O95255] | below the threshold |

Biological target: Inadl_5, Q8NI35
Test: holdup assay
Parameters: key: below the threshold = too weak to quantify, mostly under pKd 3.1 to 4
Conditions: plain residues with an end cap or a label only (N-terminal biotin on a linker: ado-ado)

Inadl_5, Q8NI35, sequence (Q8NI35 673-780): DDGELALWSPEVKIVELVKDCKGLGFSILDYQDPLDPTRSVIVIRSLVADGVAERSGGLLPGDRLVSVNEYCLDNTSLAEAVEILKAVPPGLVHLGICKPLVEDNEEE

| Binder | pKd |
| --- | --- |
| RKPKPSSSCC [RAB9A, P51151] | below the threshold |
| YRLAQESGLV [ABCC6, O95255] | below the threshold |

Biological target: T11, TX1BP3, O14907
Test: holdup assay
Parameters: key: below the threshold = too weak to quantify, mostly under pKd 3.1 to 4
Conditions: plain residues with an end cap or a label only (N-terminal biotin on a linker: ado-ado)

| Binder | pKd |
| --- | --- |
| RKPKPSSSCC [RAB9A, P51151] | 3.89 |
| YRLAQESGLV [ABCC6, O95255] | below the threshold |

Biological target: T12, MPP7, Q5T2T1
Test: holdup assay
Parameters: key: below the threshold = too weak to quantify, mostly under pKd 3.1 to 4
Conditions: plain residues with an end cap or a label only (N-terminal biotin on a linker: ado-ado)

| Binder | pKd |
| --- | --- |
| RKPKPSSSCC [RAB9A, P51151] | below the threshold |
| YRLAQESGLV [ABCC6, O95255] | below the threshold |

Biological target: HTRA1, Q92743
Test: holdup assay
Parameters: key: below the threshold = too weak to quantify, mostly under pKd 3.1 to 4
Conditions: plain residues with an end cap or a label only (N-terminal biotin on a linker: ado-ado)

HTRA1, Q92743, sequence (Q92743 360-477): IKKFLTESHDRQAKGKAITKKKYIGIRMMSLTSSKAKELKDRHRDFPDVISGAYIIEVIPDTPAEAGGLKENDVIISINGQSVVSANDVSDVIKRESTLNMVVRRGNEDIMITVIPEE

| Binder | pKd |
| --- | --- |
| RKPKPSSSCC [RAB9A, P51151] | below the threshold |
| YRLAQESGLV [ABCC6, O95255] | 3.98 |

Biological target: GRIP2_7, Q9C0E4
Test: holdup assay
Parameters: key: below the threshold = too weak to quantify, mostly under pKd 3.1 to 4
Conditions: plain residues with an end cap or a label only (N-terminal biotin on a linker: ado-ado)

GRIP2_7, Q9C0E4, sequence (Q9C0E4 934-1023): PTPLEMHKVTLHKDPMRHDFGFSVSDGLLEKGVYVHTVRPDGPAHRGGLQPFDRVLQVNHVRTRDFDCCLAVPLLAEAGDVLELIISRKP

| Binder | pKd |
| --- | --- |
| RKPKPSSSCC [RAB9A, P51151] | below the threshold |
| YRLAQESGLV [ABCC6, O95255] | below the threshold |
